Measurements: the DeepSol protein solubility set

Assay: soluble on expression in E. coli; label from the status in PepcDB or PDB records

Row | Sequence | soluble on expression in E. coli
1 | MSLGSNKTIIINLNNLEHNLNLIKNKIGEKEIVATLKGDAYGHGLINIFKFLKSKNINYFGLSNIEDAKTLKKIDKNIKILMYIKVDKKEIKNLIKFELVPFVSDFEYLFLIEKECALQKNKIKVHLKIDIGMNRYGIKIDDALEIATYIQNSKFLELEGICSHLPSIENFKTTQKQIEQFLFFLETLKQKNIHPKFVHISNSGHIINYKLNPQFNMVRPGLILYGYCQSLKNKKPALNFKPVLSLFSKVIFIKNVKKGEKISYSGIFQAKEDMKIGIIPIGYFDGIPQNISNDFYFLINNKKCKIRGKVCMNLTIVEIPKDLKVKTGSKVEIVSEKLSIDEMSKFSKRSHYELLCNIGKYEKRKYLDEGHHHITTDPNSSSVDKLAAALEHHHHHH | soluble
2 | MSDYSAKPSGSLARIGDYDLSSDDSDQNDEDETLIASKTIQTGAVQVNDIAVAEASPAETDAKSSASPVSGPEPPTSAVVENRDLDEFKKESGSNDDKQEEINEDKDSNEETVFQQTESGSADVVDKTDVKQKDSDSSADDDHSHSKSGSVHSPQKPQGSTTPCSVQSPASPVGDEQAVKMEEVEEPIVASEEVPDKKPESVKESTDSESSGSEHGFEKMDTAEKVEDECNDDEVAASNGTEEPEPGDKAADTVNPWETPRQEPVDGVVQPRTEPPAGKPTRHTNCLDFVLFTVVKDALKHKHSWPFQLPVDAIKLEIPEYHNIVNTPMDLRTIEKRLRNLYYWCAEDAIKDLNTLFDNCKKFNDRNDDIYIMCENIEGVVQRGLEWMPSEEKPADLADHHRRGMFSASTPSGKTKGPKQRGRKSTRGRKKTSLPRGASTFKDESVDDNNDDESSKVDSINFDDDDDTATEKDAESRAESVQPEVVNEEPKPSTSQPPSKKRKAENGEPAVAVKIATPATPVAAHPQEETPRRKNPNTLIEWKHLVPRWQGKIPEWQKFCSKLLNEIHSVKNKGFAQVFYLPVDPIKLKIYDYLEVITNPMDLQTIKKKLDFKQYAEPEEFVHDINLMVDNCCKYNPKGSPAHSNALELRSFFEQRWKLFPRPGVDPIIADSYINQNLVVNTDLIEDERINSYLSAVKAEEKKCAEKLEQLRSMSEGLYTIAMQRREAKLAGNTAPALAQNQLSQLEGLGISIKSTPMMIPELISPALSVRSSSRAPVPKIIDDIGPSPIKARKISKPRASMASNVSVPYTPTGNPRGRKPKKSGRPKKNIYSPATVSERISQQPPFEVTPYVSIYGRKVVGTNDKIELSERMASIPQMYITPILRIIQIGHHNTGKTITSLRSLCEEEIDFNDVSDDLVIELLDYLEMIQKDKAKAEQVRQELEVKAKFYGFEAYDNKLGTIPKTRNMPPPLQHRMRSDSPSPSASRTGNQSSDSDSASDDSSDDEPSRSNSNVAGPRRALELSGNSSSASTPAGPSKAQPAVVRPSSKSVASKPAYTKRTLSESSSSSDSNGSSSDSSDSDSEPS | not soluble
3 | AAQPADIVLTQTPSSLPVSVGEKVTMTCKSSQTLLYSNNQKNYLAWYQQKPGQSPKLLISWAFTRKSGVPDRFTGSGSGTDFTLTIGSVKAEDLAVYYCQQYSNYPWTFGGGTRLEIKRGGGGSGGGGSGGGGSGGGGSEVQLQQSGPEVVKTGASVKISCKASGYSFTGYFINWVKKNSGKSPEWIGHISSSYATSTYNQKFKNKAAFTVDTSSSTAFMQLNSLTSEDSAVYYCVRSGNYEEYAMDYWGQGTSVTVSS | soluble
4 | MLSGTLFHKDVSIYSLFEELADKLNQKIEKRERLVKASRDVTYQSKKAIYLLHRAADEDLFSICSSAKEQLENIRQLICKLLLPELSAEEYFRFHSVFTIALQEYTEARLFLSYLSEGRALTLDEINAEISQQWQSLLENSEEARIY | soluble
5 | AMLPHGLIVSCQALPDEPLHSSFIMSKMALAAYEGGAVGIRANTKEDILAIKETVDLPVIGIVKRDYDHSDVFITATSKEVDELIESQCEVIALDATLQQRPKETLDELVSYIRTHAPNVEIMADIATVEEAKNAARLGFDYIGTTLHGYTSYTQGQLLYQNDFQFLKDVLQSVDAKVIAEGNVITPDMYKRVMDLGVHCSVVGGAITRPKEITKRFVQVMED | soluble
6 | MGSDKIHHHHHHMEVKPFRPLIYRKEIDGMISPPFDAITPKQEIELKRNPYNITYLTLPKGRDGVSHARMIMENWIENGVLLRAERDCIIVLKQIFSANSRRITRYGIIARVRVFPENGDVIPHERTFDEFVRDREILMEGIGSQLEPIFLVTLKNELPQYLKIITENMKEDNRYFGPENVENYVYYIYDHKEIQKISNILRNDIAIVADGHHRLQATKNIASRQSGLAREFWSYAMSYVTSIHDEGVLIGGVHRVISSRFRFDADRASKYFYVDQCDTIAGNDPVIYDGRFYCIRPRENVYDNIIDSLNDFLFSKTIGMSTIDLERDVIYTHDYAEVVNLVNSGSFSFGVIMPDWDKAHLVELLLTRKILPQKSTYFYPKIPSGISIDSISEFIVT | not soluble
7 | MEKRELKVKTLSEVRDYEIPILKETVFDIFGGLPQAFIGISGEAGAGKTQTLMRLMADIAKREPVLVVLTEQSPHRWKAIFKKYDTNHENVRVVFKYYMDQDFIKELSQREERIIVIDSISGAVSEQKARQVAKDLRSLVEWKNKWLVGALQVRKEGVAGGEGVEHMIEVSYEITYFQLKPQNKWLYEKLKPFGYEVGDYVRLIRNTFDKVRGVQNTNLVVVDISKKNGILEFRELGRKEGEVNHE | not soluble
8 | MGSDKIHHHHHHMDTKAFKRSLQHSENYNRKGFGHQAEVATQLQSEYQSNLIQEIRDRNYILQRGDVTIRLAQAFGFCWGVERAVAMAYETRQHFPTEHIWITNEIIHNPSVNQRMQEMEVEFIPIEGKNKDFSVVGTGDVVILPAFGASVQEMQILHDKGCKIVDTTCPWVSKVWNTVEKHKKIDYTSIIHGKYKHEETVATSSFAGKYLIVLNLQEAQYVADYIINGGNREEFLTKFAKACSAGFDPDRDLERVGIANQTTMLKDETEQIGKLFERTMLQKYSPIELNQHFQSFNTICDATQERQDAMLELVEHNLNLMVVIGGFNSSNTTQLQQIAFERRIPSYHIDTVERIKSGDSIEHRQLNGQLITTENWLPDGEIVVGITSGASTPDKVVEDVIEKIFAVKATAALV | not soluble
9 | MALPQDSVNMALFCDFENIALGVRDTKFEKFDIKPVLEKLLLKGSIVVKKAYCDWDRYKTFKAAMHEASFELIEIPHVRQSGKNSADIRLVVDALDLCYTKAHVDTFVIISGDSDFSPLVSKLRENAKRVIGVGVKNSTSDLLVANCDEFIFYDDLAR | not soluble
10 | MWQQAIGDALGITARNLKKFGDRFPHVSDGSNKYVLNDNTDWTDGFWSGILWLCYEYTGDEQYREGAVRTVASFRERLDRFENLDHHDIGFLYSLSAKAQWIVEKDESARKLALDAADVLMRRWRADAGIIQAWGPKGDPENGGRIIIDCLLNLPLLLWAGEQTGDPEYRRVAEAHALKSRRFLVRGDDSSYHTFYFDPENGNAIRGGTHQGNTDGSTWTRGQAWGIYGFALNSRYLGNADLLETAKRMARHFLARVPEDGVVYWDFEVPQEPSSYRDSSASAITACGLLEIASQLDESDPERQRFIDAAKTTVTALRDGYAERDDGEAEGFIRRGSYHVRGGISPDDYTIWGDYYYLEALLRLERGVTGYWYERGR | soluble
11 | EEVTVVAFAKQKKESVIGSIQTVKPAELKTPSSNLTTSLAGRMAGVIAYQRSGEPGKDNANFFIRGVTTFGYKKDPLILLDNVEVSSDDLARVQPDDIASFSVLKDATSTALYGARGANGVILVTTKEGKEG | not soluble
12 | MKGDRLADIRTIGVVVLYRPDSSVLDAIASYRHQVHELIVVDNSEEQDHKLHSRLRDRFGATIVGEGRNLGIAAALNRAAREALAEGFDLLLTMDQDSRAEPGMVEQMLACLGSDWRERVGLIAPFHLTGARPAPGGTTPCSDVMTPMTSGCLVNLAAFREVGPFRDDFFIDFVDNEYCLRLRKKGFQVVRANRALLHHRVGDLRRYGPFVATHHSPLRRYYKTRNRCAVFAEYLRDFPVHCLFDLVRLGKEVASILIFEREKTAKLRMMWRGFLDFRRGRFGPYGGLEHHHHHH | not soluble
13 | SSLDDKPQFPGASAEFIDKLEFIQPNVISGIPIYRVMDRQGQIINPSEDPHLPKEKVLKLYKSMTLLNTMDRILYESQRQGRISFYMTNYGEEGTHVGSAAALDNTDLVFGQYREAGVLMYRDYPLELFMAQCYGNISDLGKGRQMPVHYGCKERHFVTISSPLATQIPQAVGAAYAAKRANANRVVICYFGEGAASEGDAHAGFNFAATLECPIIFFCRNNGYAISTPTSEQYRGDGIAARGPGYGIMSIRVDGNDVFAVYNATKEARRRAVAENQPFLIEAMTYAIGHASTSDDSSAYRSVDEVNYWDKQDHPISRLRHYLLSQGWWDEEQEKAWRKQSRRKVMEAFEQAERKPKPNPNLLFSDVYQEMPAQLRKQQESLARHLQTYGEHYPLDHFDK | soluble
14 | MKYDLTTQDSTIKRNNSINDKDFEKLVMDLQPLIIRRIKTFGFNHYDLEDLYQEILIRMYRSVQTFDFSGEQPFTNYVQCLITSVKYDYLRKYLATNKRMDNLINEYRVTYPCAIKRFDVENNYLNKLAIKELICQFKYLSAFEKDVMYLMCEQYKPREIAQLMHVKEKVIYNAIQRCKNKIKRYFKMI | not soluble
15 | MHKPCAVIPVYNHETAVPAVVEVLLARGLPCVLVDDASSPQCAAVLEQLAGLDQVFLIRLAINQGKGGAVMAGLREAAQLGFSHALQVDADGQHDLTDVDNFIQHSQAHPEALVCGYPQYDASVPKGRLYARYLTHVWVWINSLSLQIPDSMCGFRVYPLPPTLALLDSVQLGRRMDFDPEILVRLAWRNQPMRWLPTRVHYPQDGLSHFRLFHDNALISKMHAKLFFGMLARLPLILWRRWRPLEHHHHHH | not soluble
16 | MGSDKIHHHHHHMETKINSKALKAEALRLGFSACGIAPAEPIDQAHQNALKMWLDADRQAGMTYMANHFDKRCDPALLVEGTRCVVSVALNYYPATRIPDEEYQFAWYAYGKDYHDLMREKLATLFRFIQESDVPELNGRMFCDTAPVPERYWAWRAGLGWIGKNTQLIIPHAGSTFFLGELFLNTEADTYDRPQPNRCGRCNRCLQACPTKALETPYSLNAHRCLSYLTIENKSEIPDSIAPFMGNRVYGCDECQKACPWNRFATPCRTPELQPSPEFMNMKKEDWKQLSEEKYRALFKGSAVKRAKYSGLIRNIRQMED | not soluble
17 | MSVTLHTTSGDIKIELYVDDAPKACENFLALCASDYYNGCIFHRNIKDFMVQTGDPTHSGKGGESIWGGPFEDEFVSALKHDSRGCVSMANNGPDSNRSQFFITYAKQAHLDMKYTLFGKVIDGFDTLEEIETIKVDNKYRPLVQQK | not soluble
18 | EEPTIGDIYNGKVTSIMQFGCFVQLEGLRKRWEGLVHISELRREGRVANVADVVSKGQRVKVKVLSFTGTKTSLSMKDVDQETGEDLNPNRRRNLV | soluble
19 | GPGSMRGSDAMATHASRWRPPQNPAAVRKYSNETAAPQPPAKIIMEDHSLAEVFRRSAAFQRILAYVQGCSEAVESTPNHQRLSATVDDCDDTVRYLVTDYLPRLHDIVTAIPLEDMAQQRFGNRAKRVFHARLEETVVADMEKLVRTFPTSAGRSEEAITDMATEVAAYVMDSFGNATRLDYGSGHELHFFIVIMICLEEHGDGGGSLKDEPAVLVPLEVPPPPPVPPMERAEVRKRRQDYIFYIFHEYMRLVRRLQKRYSLEPAGSHGVWGLDDYHHIPYIFGGAQLINAEVQPVKPAAGQEAMLVLPKHICDRAKVEMLKDSYLYFSMIAWILENKTGPFHEHSNMLYNISGVEHWSKIYSGMVKMFAAEVLAKYNVSQHLLFGRHLPWNTKTM | soluble
20 | MRKPKITVIGGGTGIPVILNSLRHEEVDITAIVTVADDGGSSGAIRHVMQLTPPGDLRNVLVAMSDMPKFYERIFQYRFNAEDGALAGHPLGNLIIAGISEMQGSTYNAMQILSKFFHTTGKIYPSSEKALTLHAVFQDGQEVVGESQIAKHKGMIDHVYVANSYDDAKPTASRKVVDAIMESDMIVLGPGSLFTSILPNLVIDEIGKALCETEAEVAYVCNIMTQYGETEHFTDADHVRVLNRHLGQNFIDTVLVNVEKVPQDYMNSNQFDEYLIQVEHDFAGLQEQVPRVVSSNFLCLENGGAFHNGKSVVDELMNLIKVKELLEHHHHHH | not soluble
